For data set [1], the target named is T1, YjgCD (ForCE1) (Bacillus subtilis, UniProt O34720).
T1 construct: gene forC; full-length YjgC with N-terminal 6His tag and TEV site, copurified with untagged YjgD; homologous expression in B. subtilis 168; heterodimer 132 kDa; YjgC ~110 kDa, YjgD 21 kDa
T1 sequence (O34720 1-985): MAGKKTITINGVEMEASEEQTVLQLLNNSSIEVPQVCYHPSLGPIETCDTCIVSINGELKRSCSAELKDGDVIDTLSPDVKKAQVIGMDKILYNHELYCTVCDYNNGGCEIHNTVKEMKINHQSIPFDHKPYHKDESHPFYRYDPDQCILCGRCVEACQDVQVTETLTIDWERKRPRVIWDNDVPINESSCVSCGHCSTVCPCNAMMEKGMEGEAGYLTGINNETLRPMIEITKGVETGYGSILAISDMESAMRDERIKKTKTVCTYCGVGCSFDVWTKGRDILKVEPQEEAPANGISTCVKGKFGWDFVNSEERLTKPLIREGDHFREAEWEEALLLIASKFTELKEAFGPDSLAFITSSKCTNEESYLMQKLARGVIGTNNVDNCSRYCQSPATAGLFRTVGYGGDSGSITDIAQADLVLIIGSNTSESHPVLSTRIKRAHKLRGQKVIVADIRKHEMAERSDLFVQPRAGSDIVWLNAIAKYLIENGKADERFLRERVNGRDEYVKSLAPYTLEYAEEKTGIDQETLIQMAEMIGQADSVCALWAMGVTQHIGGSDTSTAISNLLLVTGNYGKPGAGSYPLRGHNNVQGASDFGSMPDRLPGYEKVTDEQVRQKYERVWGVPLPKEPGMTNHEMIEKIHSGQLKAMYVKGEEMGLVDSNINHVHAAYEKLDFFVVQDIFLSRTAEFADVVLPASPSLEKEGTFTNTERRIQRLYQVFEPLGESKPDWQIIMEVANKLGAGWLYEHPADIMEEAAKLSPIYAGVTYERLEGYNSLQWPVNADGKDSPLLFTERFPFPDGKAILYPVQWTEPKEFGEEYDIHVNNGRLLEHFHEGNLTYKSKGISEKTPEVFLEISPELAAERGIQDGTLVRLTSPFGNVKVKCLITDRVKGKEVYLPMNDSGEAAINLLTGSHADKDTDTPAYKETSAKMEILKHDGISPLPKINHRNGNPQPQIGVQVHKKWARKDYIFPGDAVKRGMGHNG
T1 sequence (O34681 1-186 partner): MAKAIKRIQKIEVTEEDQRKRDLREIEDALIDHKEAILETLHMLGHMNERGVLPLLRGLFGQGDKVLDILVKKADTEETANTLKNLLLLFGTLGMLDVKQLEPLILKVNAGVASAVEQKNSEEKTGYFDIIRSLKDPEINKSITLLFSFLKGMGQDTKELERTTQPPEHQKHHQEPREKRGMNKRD
Description: copurification, HPLC-ECD-MS of lipid extracts. It is filed as binding. The settings on record: copurified without detergent, minor species.

For data set [2], the target named is T1, YjgCD (ForCE1). Description: copurification, HPLC-ECD-MS of lipid extracts; EPR of bound menasemiquinone radical. It is filed as binding. The following applies: copurified without detergent; neutral menasemiquinone form seen by EPR at pH 6.0 and 7.5.
Another data set addresses T2, YrhED (ForCE2) (Bacillus subtilis, UniProt Q795Y4).
T2 construct: gene fdhE; full-length YrhE with N-terminal 6His tag and TEV site, copurified with untagged YrhD; homologous expression in B. subtilis 168; heterodimer 125 kDa; YrhE ~110 kDa, YrhD 17 kDa
T2 sequence (Q795Y4 1-980): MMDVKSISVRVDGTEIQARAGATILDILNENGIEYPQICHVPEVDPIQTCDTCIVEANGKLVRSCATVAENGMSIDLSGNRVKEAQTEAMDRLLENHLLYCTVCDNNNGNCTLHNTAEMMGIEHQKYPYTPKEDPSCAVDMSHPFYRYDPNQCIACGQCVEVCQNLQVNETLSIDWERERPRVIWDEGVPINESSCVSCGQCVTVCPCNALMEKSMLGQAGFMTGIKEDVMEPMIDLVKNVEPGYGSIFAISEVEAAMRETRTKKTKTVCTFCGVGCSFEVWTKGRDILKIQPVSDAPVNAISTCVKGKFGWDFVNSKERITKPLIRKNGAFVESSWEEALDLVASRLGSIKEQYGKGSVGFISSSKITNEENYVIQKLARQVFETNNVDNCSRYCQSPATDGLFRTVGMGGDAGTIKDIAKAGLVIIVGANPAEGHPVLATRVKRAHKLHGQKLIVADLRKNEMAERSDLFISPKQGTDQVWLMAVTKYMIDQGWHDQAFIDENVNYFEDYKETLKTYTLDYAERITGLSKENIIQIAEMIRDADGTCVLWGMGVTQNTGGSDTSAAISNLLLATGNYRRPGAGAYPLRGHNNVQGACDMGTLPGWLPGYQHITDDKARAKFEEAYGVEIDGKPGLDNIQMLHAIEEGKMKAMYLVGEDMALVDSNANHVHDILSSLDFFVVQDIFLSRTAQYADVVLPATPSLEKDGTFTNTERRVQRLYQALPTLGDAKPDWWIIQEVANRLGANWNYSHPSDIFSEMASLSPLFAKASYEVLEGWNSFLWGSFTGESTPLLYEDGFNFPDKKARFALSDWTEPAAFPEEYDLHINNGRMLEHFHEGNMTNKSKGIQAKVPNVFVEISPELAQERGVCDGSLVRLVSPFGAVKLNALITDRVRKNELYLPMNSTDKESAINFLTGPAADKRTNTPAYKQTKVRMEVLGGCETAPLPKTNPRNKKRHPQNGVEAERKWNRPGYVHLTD
T2 sequence (O05396 1-160 partner): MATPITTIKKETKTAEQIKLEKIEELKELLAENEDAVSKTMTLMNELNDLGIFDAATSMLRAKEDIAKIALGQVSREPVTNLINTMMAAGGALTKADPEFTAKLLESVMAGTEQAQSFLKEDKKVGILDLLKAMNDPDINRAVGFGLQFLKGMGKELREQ
The data set is described as above. It is filed as binding. The settings on record: copurified without detergent; menasemiquinone radical seen by EPR.

Substrate in data set [3]: O=CO
Briefly: purified protein. The settings on record: anaerobic.

Substrate in data set [4]: CC1=CC(=O)c2ccccc2C1=O
Briefly: purified protein. The settings on record: 50 mM sodium formate as electron donor, 25 mM CHES pH 9, room temperature, anaerobic. It is filed as biochemical, Bacillus subtilis.

The mark [5] stands for this setting: benzyl viologen as electron acceptor (1.75 mM), 25 mM CHES pH 8.6, room temperature, pH 8.6.
Where [6] appears, read: benzyl viologen as electron acceptor (17.5 mM), 25 mM CHES pH 10, room temperature, pH 10.0.

For the molecule `CC(C)=CCC/C(C)=C/CC/C(C)=C/CC/C(C)=C/CC/C(C)=C/CC/C(C)=C/CC/C(C)=C/CC/C(C)=C/CC1=C(C)C(=O)c2ccccc2C1=O` [MK-8], the “copurification, HPLC-ECD-MS of lipid extracts” value at YjgCD (ForCE1) [1] is on record as “ForCE1 is also able to bind MK-8 at a low but significant ratio”.
Take `CC(C)=CCC/C(C)=C/CC/C(C)=C/CC/C(C)=C/CC/C(C)=C/CC/C(C)=C/CC/C(C)=C/CC1=C(C)C(=O)c2ccccc2C1=O` [MK-7]: at YjgCD (ForCE1) [2], the ForCE1-MK-7 ratio is reported as 1:0.87. Besides, the ForCE2-MK-7 ratio at YrhED (ForCE2) is 1:1.63.

B1: YrhED (ForCE2) (Bacillus subtilis subsp. subtilis str. 168) (protein)
chain: MMDVKSISVRVDGTEIQARAGATILDILNENGIEYPQICHVPEVDPIQTCDTCIVEANGKLVRSCATVAENGMSIDLSGNRVKEAQTEAMDRLLENHLLYCTVCDNNNGNCTLHNTAEMMGIEHQKYPYTPKEDPSCAVDMSHPFYRYDPNQCIACGQCVEVCQNLQVNETLSIDWERERPRVIWDEGVPINESSCVSCGQCVTVCPCNALMEKSMLGQAGFMTGIKEDVMEPMIDLVKNVEPGYGSIFAISEVEAAMRETRTKKTKTVCTFCGVGCSFEVWTKGRDILKIQPVSDAPVNAISTCVKGKFGWDFVNSKERITKPLIRKNGAFVESSWEEALDLVASRLGSIKEQYGKGSVGFISSSKITNEENYVIQKLARQVFETNNVDNCSRYCQSPATDGLFRTVGMGGDAGTIKDIAKAGLVIIVGANPAEGHPVLATRVKRAHKLHGQKLIVADLRKNEMAERSDLFISPKQGTDQVWLMAVTKYMIDQGWHDQAFIDENVNYFEDYKETLKTYTLDYAERITGLSKENIIQIAEMIRDADGTCVLWGMGVTQNTGGSDTSAAISNLLLATGNYRRPGAGAYPLRGHNNVQGACDMGTLPGWLPGYQHITDDKARAKFEEAYGVEIDGKPGLDNIQMLHAIEEGKMKAMYLVGEDMALVDSNANHVHDILSSLDFFVVQDIFLSRTAQYADVVLPATPSLEKDGTFTNTERRVQRLYQALPTLGDAKPDWWIIQEVANRLGANWNYSHPSDIFSEMASLSPLFAKASYEVLEGWNSFLWGSFTGESTPLLYEDGFNFPDKKARFALSDWTEPAAFPEEYDLHINNGRMLEHFHEGNMTNKSKGIQAKVPNVFVEISPELAQERGVCDGSLVRLVSPFGAVKLNALITDRVRKNELYLPMNSTDKESAINFLTGPAADKRTNTPAYKQTKVRMEVLGGCETAPLPKTNPRNKKRHPQNGVEAERKWNRPGYVHLTD
notes: full-length YrhE with N-terminal 6His tag and TEV site, copurified with untagged YrhD; homologous expression in B. subtilis 168; heterodimer 125 kDa; YrhE ~110 kDa, YrhD 17 kDa
The term Km denotes the concentration of substrate that gives half-maximal velocity. Broadly, the Vmax is the rate approached at saturating substrate. For orientation: kcat means the maximal rate divided by the concentration of active sites. On to B1, for which, in “purified protein [3]” (setting [5]), the Km came to 1.1 ± 0.1 mM, the maximum rate (Vmax) amounted to 26.6 µmol/min and the catalytic constant (kcat) is 55.8 s⁻¹. Besides, in “purified protein [4]”, the Michaelis-Menten constant (Km) worked out at 0.023 ± 0.005 mM, the Vmax came to 12.6 µmol/min and the kcat amounted to 26.4 ± 1.8 s⁻¹.

B2: YjgCD (ForCE1) (Bacillus subtilis subsp. subtilis str. 168) (protein)
chain: MAGKKTITINGVEMEASEEQTVLQLLNNSSIEVPQVCYHPSLGPIETCDTCIVSINGELKRSCSAELKDGDVIDTLSPDVKKAQVIGMDKILYNHELYCTVCDYNNGGCEIHNTVKEMKINHQSIPFDHKPYHKDESHPFYRYDPDQCILCGRCVEACQDVQVTETLTIDWERKRPRVIWDNDVPINESSCVSCGHCSTVCPCNAMMEKGMEGEAGYLTGINNETLRPMIEITKGVETGYGSILAISDMESAMRDERIKKTKTVCTYCGVGCSFDVWTKGRDILKVEPQEEAPANGISTCVKGKFGWDFVNSEERLTKPLIREGDHFREAEWEEALLLIASKFTELKEAFGPDSLAFITSSKCTNEESYLMQKLARGVIGTNNVDNCSRYCQSPATAGLFRTVGYGGDSGSITDIAQADLVLIIGSNTSESHPVLSTRIKRAHKLRGQKVIVADIRKHEMAERSDLFVQPRAGSDIVWLNAIAKYLIENGKADERFLRERVNGRDEYVKSLAPYTLEYAEEKTGIDQETLIQMAEMIGQADSVCALWAMGVTQHIGGSDTSTAISNLLLVTGNYGKPGAGSYPLRGHNNVQGASDFGSMPDRLPGYEKVTDEQVRQKYERVWGVPLPKEPGMTNHEMIEKIHSGQLKAMYVKGEEMGLVDSNINHVHAAYEKLDFFVVQDIFLSRTAEFADVVLPASPSLEKEGTFTNTERRIQRLYQVFEPLGESKPDWQIIMEVANKLGAGWLYEHPADIMEEAAKLSPIYAGVTYERLEGYNSLQWPVNADGKDSPLLFTERFPFPDGKAILYPVQWTEPKEFGEEYDIHVNNGRLLEHFHEGNLTYKSKGISEKTPEVFLEISPELAAERGIQDGTLVRLTSPFGNVKVKCLITDRVKGKEVYLPMNDSGEAAINLLTGSHADKDTDTPAYKETSAKMEILKHDGISPLPKINHRNGNPQPQIGVQVHKKWARKDYIFPGDAVKRGMGHNG
notes: full-length YjgC with N-terminal 6His tag and TEV site, copurified with untagged YjgD; homologous expression in B. subtilis 168; heterodimer 132 kDa; YjgC ~110 kDa, YjgD 21 kDa
For B2, in “purified protein [3]” (setting [6]), the Km is reported as 5.1 ± 0.9 mM, the maximum rate (Vmax) came out at 43.7 µmol/min and the kcat was found to be 96.1 s⁻¹. In addition, in the data set “purified protein [4]”, the Michaelis-Menten constant (Km) is 0.025 ± 0.003 mM, the Vmax came to 7.5 µmol/min and the kcat was 16.5 ± 0.6 s⁻¹.

For the origin of these results see PMC8808070 (The Journal of Biological Chemistry, 2021).
